Test results published in PMC6592955.

Experiments:
calmodulin (CaM) = calmodulin (CaM) (UniProt P0DP26); assay: 2pFLIM-FRET in single dendritic spines; settings: reference: wild type
[1] = target: mEGFP-CaMKIIα^T286A (Rattus norvegicus) (UniProt P11275); assay: FRET or BRET; 2pFLIM-FRET in single dendritic spines of CA1 pyramidal neurons, organotypic hippocampal slices; glutamate uncaging at near physiological temperature (34–35 °C); Supplementary Fig. 2
[2] = target: mEGFP-CaMKIIα^T286A (Rattus norvegicus) (UniProt P11275); assay: FRET or BRET; 2pFLIM-FRET in single dendritic spines of CA1 pyramidal neurons, organotypic hippocampal slices; single glutamate uncaging pulse; room temperature; decay fitted with a single exponential; T286A in slices of Camk2a^T286A knock-in mice
[3] = target: mEGFP-CaMKIIα^T305A/T306A (Rattus norvegicus) (UniProt P11275); assay: as above
[4] = target: mEGFP-CaMKIIα (wildtype) (Rattus norvegicus) (UniProt P11275); assay: FRET or BRET; 2pFLIM-FRET in single dendritic spines of CA1 pyramidal neurons, organotypic hippocampal slices; glutamate uncaging at near physiological temperature (34–35 °C); Supplementary Fig. 2
[5] = target: mEGFP-CaMKIIα (wildtype) (Rattus norvegicus) (UniProt P11275); assay: FRET or BRET; 2pFLIM-FRET in single dendritic spines of CA1 pyramidal neurons, organotypic hippocampal slices; single glutamate uncaging pulse; room temperature; decay fitted with a single exponential; T286A in slices of Camk2a^T286A knock-in mice

Substance: CaMKIIα (from UniProt P11275) T286A
- other: dissociation time constant (calmodulin (CaM); sites T286): weaker; reference 2.9 ± 0.3
- other: fast dissociation time constant (calmodulin (CaM); sites T286): weaker; reference 3.2 ± 0.6

Substance: CaMKIIα (from UniProt P11275) T305A/T306A
- other: dissociation time constant (calmodulin (CaM); sites T305,T306): stronger; reference 2.9 ± 0.3
- other: fast dissociation time constant (calmodulin (CaM); sites T305,T306): stronger; reference 3.2 ± 0.6

Substance: mCherry-CaM (from UniProt P0DP26 1-149) (natural protein)
- dissociation time constant (tau) [1]: 0.3 s
- dissociation time constant (tau) [2]: 1.2 s
- dissociation time constant (tau) [3]: 7.5 s

Substance: mCherry-CaM (from UniProt P0DP26 1-149) (natural protein; other documents disagree on this pair)
- dissociation time constant (tau) [4]: 0.4 s
- dissociation time constant (tau) [5]: 2.9 s
- koff [5]: 0.33 s⁻¹
